According to the supplement of paper PMC9233669:
This sample holds only a part of the variants without activity.

Experiments:
biotinyl-Phe-oxazolone = experiment: self-aminoacylation, catalytic enhancement (BFO) (fold over background); higher = more active; k-Seq, kA / k0A0; sequences stand for … in GGGAAUGGAUCCACAUCUACGAAUUC…UUCACUGCAGACUUGACGAAGCUG
Summary of the method: (§1)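 The uncatalyzed rate is the low-activity peak of a bimodal Gaussian fit, and catalytic enhancement is median kA divided by it. The kA values came from pseudo-first-order fits, with 1000 bootstraps, of per-sequence fraction reacted measured by streptavidin capture, triplicate qPCR and Illumina sequencing. Mutagenized RNA pools with a 21-nt variable region (0.43 μM) were reacted with each biotinyl-aminoacyl-oxazolone at 2–1250 μM in 50 μL HEPES/NaCl/KCl/MgCl2/CaCl2 buffer with 5% acetonitrile, pH 6.9–7.0, for 90 minutes at room temperature.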

biotinyl-Val-oxazolone = experiment: self-aminoacylation, catalytic enhancement (BVO) (fold over background); higher = more active; k-Seq, kA / k0A0; sequences stand for … in GGGAAUGGAUCCACAUCUACGAAUUC…UUCACUGCAGACUUGACGAAGCUG
Summary of the method: as §1

biotinyl-Trp-oxazolone = experiment: self-aminoacylation, catalytic enhancement (BWO) (fold over background); higher = more active; k-Seq, kA / k0A0; sequences stand for … in GGGAAUGGAUCCACAUCUACGAAUUC…UUCACUGCAGACUUGACGAAGCUG
Summary of the method: as §1

biotinyl-Leu-oxazolone = experiment: self-aminoacylation, catalytic enhancement (BLO) (fold over background); higher = more active; k-Seq, kA / k0A0; sequences stand for … in GGGAAUGGAUCCACAUCUACGAAUUC…UUCACUGCAGACUUGACGAAGCUG
Summary of the method: as §1

biotinyl-Met-oxazolone = experiment: self-aminoacylation, catalytic enhancement (BMO) (fold over background); higher = more active; k-Seq, kA / k0A0; sequences stand for … in GGGAAUGGAUCCACAUCUACGAAUUC…UUCACUGCAGACUUGACGAAGCUG
Summary of the method: as §1

biotinyl-Ile-oxazolone = experiment: self-aminoacylation, catalytic enhancement (BIO) (fold over background); higher = more active; k-Seq, kA / k0A0; sequences stand for … in GGGAAUGGAUCCACAUCUACGAAUUC…UUCACUGCAGACUUGACGAAGCUG
Summary of the method: as §1

Sequence	self-aminoacylation (biotinyl-Phe-oxazolone)	self-aminoacylation (biotinyl-Val-oxazolone)	self-aminoacylation (biotinyl-Trp-oxazolone)	self-aminoacylation (biotinyl-Leu-oxazolone)	self-aminoacylation (biotinyl-Met-oxazolone)	self-aminoacylation (biotinyl-Ile-oxazolone)
CCACAAUUCAAGCGAUCGGUC [Fam1B.1 aminoacylation ribozyme variant]	1.53	1.47	1.12	1.56	1.28	1.37
CCACAAUUUAAGCAAUCGGUC [Fam1B.1 aminoacylation ribozyme variant]	1.12	1.02	0.864	0.824	0.776	1.2
CCACACAUCAAGCAAUCGCUC [Fam1B.1 aminoacylation ribozyme variant]	0.869	1.68	1.64	1.21	1.04	1.43
CCACACAUCAAGCAUUCGGUC [Fam1B.1 aminoacylation ribozyme variant]	1.02	1.64	1.19	1.48	1.6	1.75
CCACACAUCAAGCGAUCGGUC [Fam1B.1 aminoacylation ribozyme variant]	0.766	1.07	1.38	0.969	1.09	0.954
CCACACCCCAAGCAAUCGGUC [Fam1B.1 aminoacylation ribozyme variant]	1.04	1.37	0.888	1.04	0.627	1.6
CCACACCUAAAGCAAUCGGUC [Fam1B.1 aminoacylation ribozyme variant]	1.09	1.31	1.01	1.02	0.876	1
CCACACCUCAAGCAAUCGGGC [Fam1B.1 aminoacylation ribozyme variant]	1.92	2.33	2.11	1.71	1.49	1.86
CCACACCUCAAGCAAUCGGUG [Fam1B.1 aminoacylation ribozyme variant]	32.5	3.17	5.99	7.12	5.05	3.55
CCACACCUCACGCAAUCGGUC [Fam1B.1 aminoacylation ribozyme variant]	1.34	1.99	2.13	1.58	1.27	1.84
CCACACCUCGAGCAAUCGGUC [Fam1B.1 aminoacylation ribozyme variant]	0.967	1.88	1.95	1.11	1.18	1.39
CCACACGACAAGCAAUCGGUC [Fam1B.1 aminoacylation ribozyme variant]	0.767	1.37	0.908	0.697	0.948	0.924
CCACACGUCAAGCAAGCGGUC [Fam1B.1 aminoacylation ribozyme variant]	0.494	1.57	0.697	1.19	1.24	0.826
CCACACGUCAAGCAAUCGGUC [Fam1B.1 aminoacylation ribozyme variant]	0.848	1.65	1.16	1.17	1.16	1.11
CCACACGUCAAGCAAUGGGUC [Fam1B.1 aminoacylation ribozyme variant]	0.534	1.49	1.02	1.36	1.36	1.14
CCACACGUCAAGCAGUCGGUC [Fam1B.1 aminoacylation ribozyme variant]	0.584	1.69	1.17	1.26	1.05	0.995
CCACACGUCAAGCAUUCGGUC [Fam1B.1 aminoacylation ribozyme variant]	5.03	3.21	2.16	1.71	2.23	2.03
CCACACGUCACGCAAUCGGUC [Fam1B.1 aminoacylation ribozyme variant]	3.73	2.16	1.95	1.84	2.03	1.58
CCACACGUUAAGCAAUCGGUC [Fam1B.1 aminoacylation ribozyme variant]	1.05	1.15	0.931	0.93	0.992	1.09
CCACACUACAAGCAAUCGGCC [Fam1B.1 aminoacylation ribozyme variant]	1.99	2.06	1.78	1.57	2.7	2.44
CCACACUACUAGCAAUCGGUC [Fam1B.1 aminoacylation ribozyme variant]	0.743	0.753	0.623	0.71	0.694	0.798
CCACACUCCAAGCAACCGGUC [Fam1B.1 aminoacylation ribozyme variant]	0.853	1.44	0.654	1.19	0.814	1.24
CCACACUCCAUGCAAUCGGUC [Fam1B.1 aminoacylation ribozyme variant]	0.866	1.05	0.663	0.901	0.676	0.982
CCACACUGCAAGCAACCGGUC [Fam1B.1 aminoacylation ribozyme variant]	0.966	1.79	1.07	1.25	1.49	1.53
CCACACUGCAAGCAAGCGGUC [Fam1B.1 aminoacylation ribozyme variant]	1.05	1.61	1	1.23	0.878	1.34
CCACACUGCAAGCAAUUGGUC [Fam1B.1 aminoacylation ribozyme variant]	0.969	0.956	0.59	0.961	0.87	1.14

Sequence	self-aminoacylation (biotinyl-Phe-oxazolone)	self-aminoacylation (biotinyl-Val-oxazolone)	self-aminoacylation (biotinyl-Trp-oxazolone)	self-aminoacylation (biotinyl-Leu-oxazolone)	self-aminoacylation (biotinyl-Met-oxazolone)	self-aminoacylation (biotinyl-Ile-oxazolone)
CCACACUGCAAGCAUUCGGUC [Fam1B.1 aminoacylation ribozyme variant]	8.26	2.96	3.51	2.58	2.04	2.37
CCACACUGCGAGCAAUCGGUC [Fam1B.1 aminoacylation ribozyme variant]	3.33	1.51	1.21	1.25	1.07	1.21
CCACACUUAAAGCAAUCGGUU [Fam1B.1 aminoacylation ribozyme variant]	0.794	1.15	0.916	0.849	0.896	1.08
CCACACUUAAAGCAGUCGGUC [Fam1B.1 aminoacylation ribozyme variant]	0.946	0.872	0.621	0.985	0.942	1.08
CCACACUUAAAGCUAUCGGUC [Fam1B.1 aminoacylation ribozyme variant]	0.762	1.1	0.89	0.915	0.887	1.03
CCACACUUAAAGUAAUCGGUC [Fam1B.1 aminoacylation ribozyme variant]	0.772	0.836	0.875	0.744	0.695	0.82
CCACACUUAACGCAAUCGGUC [Fam1B.1 aminoacylation ribozyme variant]	0.826	1.11	1.11	0.986	0.874	1.08
CCACACUUCAAACAAUAGGUC [Fam1B.1 aminoacylation ribozyme variant]	0.995	0.656	0.652	0.471	0.435	0.617
CCACACUUCAAACAAUCGGAC [Fam1B.1 aminoacylation ribozyme variant]	3.27	1	1.94	0.951	0.88	1.01
CCACACUUCAAACAAUCGGUG [Fam1B.1 aminoacylation ribozyme variant]	4.88	3.01	4.19	6.19	4.77	2.96
CCACACUUCAAACAAUCGGUU [Fam1B.1 aminoacylation ribozyme variant]	29.6	2.17	21.5	2.57	1.93	1.91
CCACACUUCAAACAAUUGGUC [Fam1B.1 aminoacylation ribozyme variant]	1.55	0.59	1	0.588	0.659	0.737
CCACACUUCAAACAGUCGGUC [Fam1B.1 aminoacylation ribozyme variant]	1.09	0.945	0.848	0.622	0.735	0.75
CCACACUUCAAACUAUCGGUC [Fam1B.1 aminoacylation ribozyme variant]	1.09	0.909	0.882	0.83	0.781	0.976
CCACACUUCAACCAAACGGUC [Fam1B.1 aminoacylation ribozyme variant]	0.797	0.846	0.727	0.729	0.628	0.872
CCACACUUCAACCAAUGGGUC [Fam1B.1 aminoacylation ribozyme variant]	0.603	0.759	0.377	0.593	0.499	0.685
CCACACUUCAACUAAUCGGUC [Fam1B.1 aminoacylation ribozyme variant]	22.8	0.925	11.6	1.04	0.753	0.859
CCACACUUCAAGAAAUCGGCC [Fam1B.1 aminoacylation ribozyme variant]	3.48	2.16	3.06	1.78	1.97	1.96
CCACACUUCAAGAAAUCGUUC [Fam1B.1 aminoacylation ribozyme variant]	0.735	0.602	0.399	0.529	0.482	0.472
CCACACUUCAAGAACUCGGUC [Fam1B.1 aminoacylation ribozyme variant]	0.548	1.01	0.586	1.01	0.696	0.836
CCACACUUCAAGCAAAAGGUC [Fam1B.1 aminoacylation ribozyme variant]	1.05	0.721	0.598	0.524	0.434	0.598
CCACACUUCAAGCAAACGCUC [Fam1B.1 aminoacylation ribozyme variant]	0.677	0.912	1.37	1.01	1.41	0.956
CCACACUUCAAGCAACCGAUC [Fam1B.1 aminoacylation ribozyme variant]	1.05	0.684	0.75	0.45	0.559	0.665
CCACACUUCAAGCAACCGGUC [Fam1B.1 aminoacylation ribozyme variant]	1.31	1.01	0.935	0.721	0.783	0.933
CCACACUUCAAGCAACGGGUC [Fam1B.1 aminoacylation ribozyme variant]	0.777	0.81	0.464	0.569	0.626	0.624
